# B1: Eubacterium ramulus DSM 16296 chalcone isomerase (CHI), wild type, SEQ ID NO:3 (Eubacterium ramulus) (protein)
# chain: MADFKFEPMRSLIYVDCVSEDYRPKLQRWIYKVHIPDSISQFEPYVTKYAFYPSFPIPPQGDRFGYARMQLTEHHWLVSDLDPRLEIKAIAETFPMDVLVWQGQIPAAAHTDAQIDSDGDAGNAARKSNNAEGNPFIFAFLPMWWEKDLKGKGRTIEDGANYRFNMTIGFPEGVDKAEGEKWLFEKVVPILQAAPECTRVLASAVKKDINGCVMDWVLEIWFENQSGWYKVMVDDMKALEKPSWAQQDAFPFLKPYHNVCSAAVADYTPSNNLANYRGYITMR
# Tests used:
# [1] = Temperature stability of CHI; format: biochemical
# Text: (§1) For the purposes of the present invention especially preferred is the use of a chalcone isomerase, having one, several or all the following characteristics and/or a temperature and pH stability according to Tables 1-3:
# (§2) A photometric determination allowed—for further investigation of the CHI activity—the reduction over time in the concentration of naringenin chalcone in a cell-free protein crude extract to be observed.
# [2] = Activity measurements for determination of the temperature optimum for CHI; format: biochemical
# Text: as §1, §2
# [3] = Activity measurements for determination of the pH optimum of CHI; format: biochemical
# Text: as §1, §2
# [4] = substrate: O=C(/C=C/c1ccc(O)cc1)c1c(O)cc(O)cc1O; assay: Characterisation of the enzyme activity of the CHI following expression of the vector pET28b_CHI in E. coli; format: biochemical, Eubacterium ramulus DSM 16296; settings: other: CHI expressed from pET28b_CHI in E. coli; substrate not given
# Text: Following expression of for example pET28b_CHI in E. coli (see above) CHI can be established both in the soluble and in the insoluble fractions.
# Following purification with for example anion exchange chromatography, hydrophobic interaction chromatography, size exclusion chromatography and/or Resource Q purification the CHI can be isolated for characterization (FIG. 5 provides examples of the results of the individual purification steps following expression of the vector pET28b_CHI in E. coli).
# The values in the table in Table 6 show (further) results of the chalcone isomerase activity of the expressed CHI, obtained by photometric determination (at 368 nm) in relation to the degradation of naringenin chalcone (to form […]).
# as §2
molecule,measurement,setting,value
B1,Spec. activity,"[1]; 25° C., 0 h",188.56 U/mg
same,Spec. activity,"[1]; 25° C., 0.5 h",136.70 U/mg
same,Spec. activity,"[1]; 25° C., 1 h",141.10 U/mg
same,Spec. activity,"[1]; 25° C., 2 h",152.08 U/mg
same,Spec. activity,"[1]; 25° C., 4 h",152.48 U/mg
same,Spec. activity,"[1]; 25° C., 6 h",146.46 U/mg
same,Spec. activity,"[1]; 25° C., 24 h",116.37 U/mg
same,Spec. activity,"[1]; 30° C., 0 h",188.56 U/mg
same,Spec. activity,"[1]; 30° C., 0.5 h",169.66 U/mg
same,Spec. activity,"[1]; 30° C., 1 h",158.01 U/mg
same,Spec. activity,"[1]; 30° C., 2 h",154.62 U/mg
same,Spec. activity,"[1]; 30° C., 4 h",145.77 U/mg
same,Spec. activity,"[1]; 30° C., 6 h",147.18 U/mg
same,Spec. activity,"[1]; 30° C., 24 h",119.96 U/mg
same,Spec. activity,"[1]; 37° C., 0 h",188.56 U/mg
same,Spec. activity,"[1]; 37° C., 0.5 h",155.20 U/mg
same,Spec. activity,"[1]; 37° C., 1 h",164.39 U/mg
same,Spec. activity,"[1]; 37° C., 2 h",156.17 U/mg
same,Spec. activity,"[1]; 37° C., 4 h",156.84 U/mg
same,Spec. activity,"[1]; 37° C., 6 h",156.21 U/mg
same,Spec. activity,"[1]; 37° C., 24 h",93.93 U/mg
same,Spec. activity,"[1]; 41° C., 0 h",188.56 U/mg
same,Spec. activity,"[1]; 41° C., 0.5 h",151.96 U/mg
same,Spec. activity,"[1]; 41° C., 1 h",154.22 U/mg
same,Spec. activity,"[1]; 41° C., 2 h",149.12 U/mg
same,Spec. activity,"[1]; 41° C., 4 h",146.59 U/mg
same,Spec. activity,"[1]; 41° C., 6 h",149.39 U/mg
same,Spec. activity,"[1]; 41° C., 24 h",93.30 U/mg
same,Spec. activity,"[1]; 44° C., 0 h",188.56 U/mg
same,Spec. activity,"[1]; 44° C., 0.5 h",158.12 U/mg
same,Spec. activity,"[1]; 44° C., 1 h",150.15 U/mg
same,Spec. activity,"[1]; 44° C., 2 h",129.07 U/mg
same,Spec. activity,"[1]; 44° C., 4 h",115.07 U/mg
same,Spec. activity,"[1]; 44° C., 6 h",83.35 U/mg
same,Spec. activity,"[1]; 50° C., 0 h",188.56 U/mg
same,Spec. activity,"[1]; 50° C., 0.5 h",50.49 U/mg
same,Spec. activity,"[1]; 50° C., 1 h",3.05 U/mg
same,Spec. activity,"[1]; 50° C., 2 h",2.35 U/mg
same,Spec. activity,"[1]; RT (23° C.), 0 h",188.56 U/mg
same,Spec. activity,"[1]; RT (23° C.), 0.5 h",145.67 U/mg
same,Spec. activity,"[1]; RT (23° C.), 1 h",148.67 U/mg
same,Spec. activity,"[1]; RT (23° C.), 2 h",144.05 U/mg
same,Spec. activity,"[1]; RT (23° C.), 4 h",146.39 U/mg
same,Spec. activity,"[1]; RT (23° C.), 6 h",141.06 U/mg
same,Spec. activity,"[1]; RT (23° C.), 24 h",125.68 U/mg
same,Spec. activity,[2]; 30° C.,373.47 U/mg
same,Spec. activity,[2]; 37° C.,795.04 U/mg
same,Spec. activity,[2]; 40° C.,887.73 U/mg
same,Spec. activity,[2]; 45° C.,1133.38 U/mg
same,Spec. activity,[2]; 50° C.,748.66 U/mg
same,Spec. activity,[2]; RT (23° C.),158.39 U/mg
same,Spec. activity,[3]; pH value 6.13,82.07 U/mg
same,Spec. activity,[3]; pH value 6.35,163.43 U/mg
same,Spec. activity,[3]; pH value 6.4,177.59 U/mg
same,Spec. activity,[3]; pH value 6.55,169.79 U/mg
same,Spec. activity,[3]; pH value 6.8,185.86 U/mg
same,Spec. activity,[3]; pH value 6.93,175.37 U/mg
same,Spec. activity,[3]; pH value 7.12,174.86 U/mg
same,Spec. activity,[3]; pH value 7.45,173.01 U/mg
same,Spec. activity,[3]; pH value 7.7,168.79 U/mg
same,Spec. activity,[3]; pH value 8,152.55 U/mg
same,Km,[4],36.83 µM
same,Vmax,[4],107 µmol/min/mg
same,kcat,[4],417 s⁻¹
same,kcat/Km,[4],1.13e+07 M⁻¹ s⁻¹

# From US9359622B2, “Method for biotechnological production of dihydrochalcones” (Symrise AG, priority 2012, dated 2016)
